Measurements: patent publication US20230165938A1

What was measured:
Test in all cases: cell-based or functional assay
[1] = molecular target: wildtype human rod opsin (human) (UniProt P08100)
[2] = molecular target: phosphonull Rod opsin 6A mutant (human) (UniProt P08100)
[3] = molecular target: wildtype human rod opsin (human) (UniProt P08100); remark: listed apart in the source

| Response decay (best fit Toff) of the light-driven BRET G protein (Go) activation response in Hek293T cells, arrestin co-expressed without GRK1, relative to RodWT alone (% of RodWT level) [1] | Response decay rate of the BRET G protein activation light response, arrestin and GRK1 both co-expressed with RodWT, relative to RodWT alone [1] [x faster] | Toff of the BRET G protein activation light response, arrestin and GRK1 both co-expressed with RodWT (RodWT alone 166.16) [1] [s] | Response amplitude (A) of the BRET G protein activation light response, GRK1 only co-expressed with Rod6A (scaling factor A) [2] | Response amplitude (A) of the BRET G protein activation light response, GRK1 (or GRK1+Arr) co-expressed with RodWT (% of RodWT amplitude) [3] | Molecule |
| --- | --- | --- | --- | --- | --- |
| 90 | 2.5 | 65.6 | – | – | wildtype human visual arrestin (from UniProt P10523 1-405) |
| – | – | – | 0.42 | 25 | human rhodopsin kinase (G protein receptor kinase 1) (enzyme, UniProt Q15835 1-560, looked up) MDFGSLETVVANSAFIAARGSFDGSSSQPSRDKKYLAKLKLPPLSKCESLRDSLSLEFESVCLEQPIGKKLFQQFLQSAEKHLPALELWKDIEDYDTADNDLQPQKAQTILAQYLDPQAKLFCSFLDEGIVAKFKEGPVEIQDGLFQPLLQATLAHLGQAPFQEYLGSLYFLRFLQWKWLEAQPMGEDWFLDFRVLGKGGFGEVSACQMKATGKLYACKKLNKKRLKKRKGYQGAMVEKKILMKVHSRFIVSLAYAFETKADLCLVMTIMNGGDIRYHIYNVNEENPGFPEPRALFYTAQIICGLEHLHQRRIVYRDLKPENVLLDNDGNVRISDLGLAVELLDGQSKTKGYAGTPGFMAPELLQGEEYDFSVDYFALGVTLYEMIAARGPFRARGEKVENKELKHRIISEPVKYPDKFSQASKDFCEALLEKDPEKRLGFRDETCDKLRAHPLFKDLNWRQLEAGMLMPPFIPDSKTVYAKDIQDVGAFSTVKGVAFDKTDTEFFQEFATGNCPIPWQEEMIETGIFGELNVWRSDGQMPDDMKGISGGSSSSSKSGMC |
